Test results reported in patent US10494415B2, “Insulin-like growth factor 2 (IGF2) binding agents” (Cancer Research Technology Limited, priority 2015, dated 2019).
Marks after values point to notes of the source that are not given here.

Experiments:
IGF2^1-67 = target: T1, IGF2^1-67 (Homo sapiens, UniProt P01344); experiment: SPR of IGF forms on Fc-domain 11 proteins immobilised by antibody capture; assay type: binding; conditions: HBS-EP pH 7.4
T1 construct: Recombinant mature (IGF2^1-67 [7.5 kDa]
T1 sequence (P01344 25-91): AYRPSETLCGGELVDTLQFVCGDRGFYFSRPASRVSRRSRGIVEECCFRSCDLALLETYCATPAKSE
Procedure: (§1) SPR analysis of the interaction of recombinant IGF1 and IGF2 forms with Fc-domain 11 proteins immobilised by antibody capture (CM5 chip containing monoclonal mouse anti-human IgG antibody immobilised by amine coupling). Measurements were carried out at 25° C. in HBS-EP buffer (pH 7.4).
(§2) Final kinetic analysis of mutants by SPR was conducted using a Biacore T200 biosensor at 25° C. in either HBS-EP (10 mM HEPES pH 7.4, 150 mM NaCl, 3 mM EDTA, and 0.005% (v/v) surfactant P20) or MES-EP (20 mM MES pH 6.5, 150 mM NaCl, 3 mM EDTA, and 0.005% (v/v) surfactant P20) at a flow-rate of 40 μL min^−1. […] For the analysis of the Fc-domain 11^AB5 interaction, approximately 50 RU of a biotinylated IGF2:biotinylated ubiquitin mixture (1:8 proportion) was immobilized on the CM5-streptavidin chip. This interaction was also analysed by immobilizing the Fc-domain 11^AB5 and Fc-domain 11^AB5-RHH (or Fc-domain 11^I1572A as control) by Human Antibody Capture (monoclonal mouse anti-human IgG antibody immobilised on a CM5 chip by amine coupling, GE Healthcare) with and without human IgG1 Fc fragment (Bethyl Laboratories, UK) in the control flow cell. Increasing concentrations of IGF2^1-67, proIGF2^1-104, proIGF2^1-156 and IGF1 ranging from 0.125 to 32 nM were injected. T200 BiaEvaluation software (GE Healthcare) was used to fit the resulting curves according to a 1:1 binding model. Steady state affinities were determined using the kinetic data, taking the response average at 5 seconds before injection end and for 5 seconds average. Thermodynamic data was performed across the temperature range of 10° C. to 30° C., van't Hoff and Erying plots generated and ΔH, −TΔS and ΔG values determined as previously described.

IGF2^1-156 = target: T2, IGF2^1-156 (Homo sapiens, UniProt P01344); experiment: as above; assay type: binding
T2 construct: pro-IGF2^1-156 [17 kDa]
T2 sequence (P01344 25-180): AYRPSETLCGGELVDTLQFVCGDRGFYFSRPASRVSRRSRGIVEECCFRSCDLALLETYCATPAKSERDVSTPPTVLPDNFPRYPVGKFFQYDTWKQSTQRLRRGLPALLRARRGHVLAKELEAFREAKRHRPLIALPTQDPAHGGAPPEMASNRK
Procedure: as §1, §2

IGF2^1-104 = target: T3, IGF2^1-104 (Homo sapiens, UniProt P01344); experiment: as above; assay type: binding; conditions: HBS-EP pH 7.4
T3 construct: pro-IGF2 (pro-IGF2^1-104 [11 kDa]
T3 sequence (P01344 25-128): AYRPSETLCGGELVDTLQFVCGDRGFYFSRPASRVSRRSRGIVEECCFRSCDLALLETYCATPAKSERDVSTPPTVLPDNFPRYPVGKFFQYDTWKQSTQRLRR
Procedure: as §1, §2

SKNMC-IGF2^104 cells = experiment: IGF2-TRAP synthetic lethality screen (resazurin viability); assay type: cell-based, human; conditions: fixed concentration of IGF2-TRAP alone, assay end point of 72 hrs
Procedure: For synthetic lethality screens (Target Discovery Institute, University of Oxford), either 2,500 or 5,000 SKNMC-IGF2104-IRES-luc cells were plated in medium containing 0.5% charcoal stripped FBS in 384 well plates and the IGF2-TRAP was added 24 h later to half of the plates. Using automated dispensing 307 oncology drugs that have been tested in man (TDI expanded Oncology Drug library) were added to cells 3 hrs later 10 μM, 1 μM, 100 nM and 10 nM, in the presence and absence of 250 nM IGF2-TRAP. After 48 hr of incubation, resazurin was added to a final concentration of 10 μg/mL and the fluorescence (Ex: 560 nm, Em: 590 nm) recorded at 2 hr. […] Pearson's product-moment correlation coefficient (r) was calculated to determine replicate correlation. […]
The interaction score was calculated where v was the viability readout for the drug condition, x^− was the sample mean of the negative controls and s was the sample standard deviation of the negative controls, z was calculated as z_treatment=(v−x^−)/s. z_(no_IT) was calculated from PBS control plates, comparing ‘drug d’ to same-plate negative controls ‘cells+DMSO’. z_IT was calculated from treated plates, comparing ‘drug d+IGF2-TRAP (IT)’ to same-plate negative controls ‘cells+IT+DMSO’. […] Interaction scores were calculated for each replicate r_(d,1)/r_(d,2)/r_(d,3) independently. […]

[1] = tested on: IGF2^1-67-induced hypoglycaemia; experiment: IGF2-induced hypoglycaemia mouse model; assay type: in vivo; conditions: co-injected
Text: All animal experiments were approved by the animal use ethical committee of Oxford University and fully complied with UK Home Office guidelines (PPL 30/2695). Wild-type C57BL/6J and 129S2 mice were used throughout. Mice were anaesthetised using a rising concentration of isoflurane in oxygenated air and maintained using 2% isoflurane with 2 L min^−1 oxygen. Blood glucose measurements were taken using an Advantage diabetic glucose meter (Roche Diagnostics, Burgess Hill, UK). In order to test the direct inhibition of IGF2-induced hypoglycaemia by Fc-domain 11^AB5, blood glucose levels were allowed to normalise for 30 min prior to taking a baseline blood glucose reading, then either 1 mg kg^−1 IGF2 only (R&D systems), […], Fc-domain 11^RHH, or Fc-domain 11^I1572A ([…]) was injected. Blood glucose measurements were taken every 10 min for the following hour. For the Fc-domain 11^AB5 mouse preloading experiment, 11.7 mg kg^−1 Fc-domain 11^AB5 or PBS, as negative control, was injected immediately after induction of anaesthesia, 30 mins later a baseline blood glucose reading was taken and 1 mg kg^−1 IGF2 ([…]) was injected, readings were then taken every 10 min for the following hour. For the mouse IGF2 preloading experiment, 1 mg kg^−1 IGF2 was injected immediately after induction of anaesthesia, 30 min later a baseline blood glucose reading was taken and either 11.7 mg kg^−1 Fc-domain 11^AB5 ([…]) or PBS was injected, readings were then taken every 10 min for the following hour.

B1: Fc-domain 11^AB5-RHH: Fc-fusion of domain 11^AB5-RHH (IGF2-TRAP); IgG2 Fc form purified from CHO cells used for xenografts (protein)
chain: NEHDDCQVTNPSTGHLFDLSSLSGRAGFTAAYAKGWGVYMSICGENENCPPGVGACFGRTRISVGKANKRLRYVDQVLQLVYKDGSHCPSKHGLSYKSVISFVCRPEAGPTNRPMLISLDKQTCTLFFSWHTPLACEQAT
modifications: left off: a dimerising Fc or GST
notes: Fc-fusion of domain 11^AB5-RHH (IGF2-TRAP); IgG2 Fc form purified from CHO cells used for xenografts
- Kinetics koff (IGF2^1-67): 0.0014 s⁻¹
- Kinetics kon (IGF2^1-67): 2.6e+06 M⁻¹ s⁻¹
- Kinetics koff (IGF2^1-156; HBS-EP pH 7.4): 0.0003 s⁻¹
- Kinetics kon (IGF2^1-156; may be inaccurate (mixture of three isoforms)): 0.23* ×10^6 M^−1s^−1
- Kinetics koff (IGF2^1-104): 0.0005 s⁻¹
- Kinetics kon (IGF2^1-104): 1.29e+06 M⁻¹ s⁻¹
- reduction in cell viability (SKNMC-IGF2^104 cells): 10-20%
- IGF2-induced hypoglycaemia (blood glucose) ([1]; molar ratio 1:0.23): more efficient IGF2 antagonist than Fc-domain 11^AB5
- IGF2-induced hypoglycaemia (blood glucose) ([1]; molar ratio 1:0.23, listed as domain 11^AB5-RHH): significantly counteracted IGF2-induced hypoglycaemia
- IGF2-induced hypoglycaemia (blood glucose) ([1]; molar ratio 1:0.5): abrogation
